Assay results published in patent publication US8785135B2, “Mutant G-protein coupled receptors and methods for selecting them” (Heptares Therapeutics Limited, priority 2007, dated 2014).
Residue numbers refer to the chain shown, from its start. Numbers in names are those of the source.

B1: W391A: NTR point mutant (protein, UniProt P20789 1-424, looked up, variant W391A)
Neurotensin receptor type 1: MHLNSSVPQGTPGEPDAQPFSGPQSEMEATFLALSLSNGSGNTSESDTAGPNSDLDVNTDIYSKVLVTAIYLALFVVGTVGNSVTAFTLARKKSLQSLQSTVHYHLGSLALSDLLILLLAMPVELYNFIWVHHPWAFGDAGCRGYYFLRDACTYATALNVASLSVERYLAICHPFKAKTLMSRSRTKKFISAIWLASALLAIPMLFTMGLQNRSGDGTHPGGLVCTPIVDTATVKVVIQVNTFMSFLFPMLVISILNTVIANKLTVMVHQAAEQGRVCTVGTHNGLEHSTFNMTIEPGRVQALRHGVLVLRAVVIAFVVCWLPYHVRRLMFCYISDEQWTTFLFDFYHYFYMLTNALFYVSSAINPILYNLVSANFRQVFLSTLACLCPGARHRRKKRPTFSRKPNSMSSNHAFSTSATRETLY
B2: L256A: NTR point mutant (protein, UniProt P20789 1-424, looked up, variant L256A)
Neurotensin receptor type 1: B1 Neurotensin receptor type 1 with L256A, A391W
B3: T294A: NTR point mutant (protein, UniProt P20789 1-424, looked up, variant T294A)
Neurotensin receptor type 1: B1 Neurotensin receptor type 1 with T294A, A391W
B4: G215A: NTR point mutant (protein, UniProt P20789 1-424, looked up, variant G215A)
Neurotensin receptor type 1: B1 Neurotensin receptor type 1 with G215A, A391W
B5: L111A: NTR point mutant (protein, UniProt P20789 1-424, looked up, variant L111A)
Neurotensin receptor type 1: B1 Neurotensin receptor type 1 with L111A, A391W
B6: A90L: NTR point mutant (protein, UniProt P20789 1-424, looked up, variant A90L)
Neurotensin receptor type 1: B1 Neurotensin receptor type 1 with A90L, A391W
B7: R183A: NTR point mutant (protein, UniProt P20789 1-424, looked up, variant R183A)
Neurotensin receptor type 1: B1 Neurotensin receptor type 1 with R183A, A391W
B8: S182A: NTR point mutant (protein, UniProt P20789 1-424, looked up, variant S182A)
Neurotensin receptor type 1: B1 Neurotensin receptor type 1 with S182A, A391W
B9: V309A: NTR point mutant (protein, UniProt P20789 1-424, looked up, variant V309A)
Neurotensin receptor type 1: B1 Neurotensin receptor type 1 with V309A, A391W
B10: A356L: NTR point mutant (protein, UniProt P20789 1-424, looked up, variant A356L)
Neurotensin receptor type 1: B1 Neurotensin receptor type 1 with A356L, A391W
B11: D139A: NTR point mutant (protein, UniProt P20789 1-424, looked up, variant D139A)
Neurotensin receptor type 1: B1 Neurotensin receptor type 1 with D139A, A391W
B12: E166A: NTR point mutant (protein, UniProt P20789 1-424, looked up, variant E166A)
Neurotensin receptor type 1: B1 Neurotensin receptor type 1 with E166A, A391W
B13: H103A: NTR point mutant (protein, UniProt P20789 1-424, looked up, variant H103A)
Neurotensin receptor type 1: B1 Neurotensin receptor type 1 with H103A, A391W
B14: A69L: NTR point mutant (protein, UniProt P20789 1-424, looked up, variant A69L)
Neurotensin receptor type 1: B1 Neurotensin receptor type 1 with A69L, A391W
B15: M250A: NTR point mutant (protein, UniProt P20789 1-424, looked up, variant M250A)
Neurotensin receptor type 1: B1 Neurotensin receptor type 1 with M250A, A391W
B16: 1253A: NTR point mutant, Ile 253 to Ala (protein, UniProt P20789 1-424, looked up, variant I253A)
Neurotensin receptor type 1: B1 Neurotensin receptor type 1 with I253A, A391W
B17: S100A: NTR point mutant (protein, UniProt P20789 1-424, looked up, variant S100A)
Neurotensin receptor type 1: B1 Neurotensin receptor type 1 with S100A, A391W
B18: A177L: NTR point mutant (protein, UniProt P20789 1-424, looked up, variant A177L)
Neurotensin receptor type 1: B1 Neurotensin receptor type 1 with A177L, A391W
B19: G306A: NTR point mutant (protein, UniProt P20789 1-424, looked up, variant G306A)
Neurotensin receptor type 1: B1 Neurotensin receptor type 1 with G306A, A391W
B20: I260A: NTR point mutant (protein, UniProt P20789 1-424, looked up, variant I260A)
Neurotensin receptor type 1: B1 Neurotensin receptor type 1 with I260A, A391W
B21: L308A: NTR point mutant (protein, UniProt P20789 1-424, looked up, variant L308A)
Neurotensin receptor type 1: B1 Neurotensin receptor type 1 with L308A, A391W
B22: V229A: NTR point mutant (protein, UniProt P20789 1-424, looked up, variant V229A)
Neurotensin receptor type 1: B1 Neurotensin receptor type 1 with V229A, A391W
B23: A73L: NTR point mutant (protein, UniProt P20789 1-424, looked up, variant A73L)
Neurotensin receptor type 1: B1 Neurotensin receptor type 1 with A73L, A391W
B24: M293A: NTR point mutant (protein, UniProt P20789 1-424, looked up, variant M293A)
Neurotensin receptor type 1: B1 Neurotensin receptor type 1 with M293A, A391W
B25: V165A: NTR point mutant (protein, UniProt P20789 1-424, looked up, variant V165A)
Neurotensin receptor type 1: B1 Neurotensin receptor type 1 with V165A, A391W
B26: K176A: NTR point mutant (protein, UniProt P20789 1-424, looked up, variant K176A)
Neurotensin receptor type 1: B1 Neurotensin receptor type 1 with K176A, A391W
B27: F147A: NTR point mutant (protein, UniProt P20789 1-424, looked up, variant F147A)
Neurotensin receptor type 1: B1 Neurotensin receptor type 1 with F147A, A391W
B28: T179A: NTR point mutant (protein, UniProt P20789 1-424, looked up, variant T179A)
Neurotensin receptor type 1: B1 Neurotensin receptor type 1 with T179A, A391W
B29: Wildtype NTR: rat neurotensin receptor, parent (protein)
chain: TSESDTAGPNSDLDVNTDIYSKVLVTAIYLALFVVGTVGNSVTAFTLARKKSLQSLQSTVHYHLGSLALSDLLILLLAMPVELYNFIWVHHPWAFGDAGCRGYYFLRDACTYATALNVASLSVERYLAICHPFKAKTLMSRSRTKKFISAIWLASALLAIPMLFTMGLQNRSGDGTHPGGLVCTPIVDTATVKVVIQVNTFMSFLFPMLVISILNTVIANKLTVMVHQAAEQGRVCTVGTHNGLEHSTFNMTIEPGRVQALRHGVLVLRAVVIAFVVCWLPYHVRRLMFCYISDEQWTTFLFDFYHYFYMLTNALFYVSSAINPILYNLVSANFRQVFLSTLACLCPGWRHRRKKRPTFSRKPNSMSSNHAFSTSATRETLY

Test: Thermostability of NTR and mutants (3H-neurotensin binding)
Type: physicochemical
Conditions: for thermostability, 3H-neurotensin (agonist) binding after the heating step: heated in the absence of the agonist; for thermostability, heated in the presence of 3H-neurotensin: Ligand(+) format
Description: FIG. 12 Flow chart showing the two different assay formats of ligand (+) and ligand (−) used to determine receptor thermostability.
• 1. 340 site-directed mutants have been made between residues 61-400 of NTR. • 2. Initially, all of these mutants were assayed for thermostability using an assay measuring ^3H-neurotensin (agonist) binding after the heating step. […] Mutants tested for thermostability by heating in the absence of the agonist were re-tested using a slightly different assay where the mutants were heated in the presence of ^3H-neurotensin (Ligand(+) format in FIG. 12). […] All of these also have increased thermostability. • 5. Preferred combinations are • a. Nag7m F358A+A86L+I260A+F342A Tm 51° C. (neurotensin bound) • b. Nag7n F358A+H103A+I260A+F342A Tm 51° C. (neurotensin bound) • Wildtype NTR has a Tm of 35° C. with neurotensin bound.

Row | Molecule | thermostability, 3H-neurotensin (agonist) binding after the heating step | thermostability, heated in the presence of 3H-neurotensin | Tm (neurotensin bound) [°C]
1 | B1 | small but significant increase in thermostability |  | 
2 | B2 | small but significant increase in thermostability |  | 
3 | B3 |  | improved thermostability | 
4 | B4 |  | improved thermostability | 
5 | B5 | small but significant increase in thermostability |  | 
6 | B6 | small but significant increase in thermostability | improved thermostability | 
7 | B7 |  | improved thermostability | 
8 | B8 | small but significant increase in thermostability |  | 
9 | B9 |  | improved thermostability | 
10 | B10 | small but significant increase in thermostability |  | 
11 | B11 | small but significant increase in thermostability |  | 
12 | B12 |  | improved thermostability | 
13 | B13 | small but significant increase in thermostability | improved thermostability | 
14 | B14 |  | improved thermostability | 
15 | B15 |  | improved thermostability | 
16 | B16 |  | improved thermostability | 
17 | B17 | small but significant increase in thermostability |  | 
18 | B18 |  | improved thermostability | 
19 | B19 |  | improved thermostability | 
20 | B20 |  | improved thermostability | 
21 | B21 |  | improved thermostability | 
22 | B22 |  | improved thermostability | 
23 | B23 |  | improved thermostability | 
24 | B24 | small but significant increase in thermostability |  | 
25 | B25 |  | improved thermostability | 
26 | B26 | small but significant increase in thermostability |  | 
27 | B27 | small but significant increase in thermostability |  | 
28 | B28 | small but significant increase in thermostability |  | 
29 | B29 |  |  | 35
